Data as given in FireProtDB (doi:10.1021/bi801431x).
“And” between values parts separate entries of the source, which are not always exact repeats. Equal values may be shown once.

B1: Aspartate aminotransferase, P00509 (parent)
chain: MFENITAAPADPILGLADLFRADERPGKINLGIGVYKDETGKTPVLTSVKKAEQYLLENETTKNYLGIDGIPEFGRCTQELLFGKGSALINDKRARTAQTPGGTGALRVAADFLAKNTSVKRVWVSNPSWPNHKSVFNSAGLEVREYAYYDAENHTLDFDALINSLNEAQAGDVVLFHGCCHNPTGIDPTLEQWQTLAQLSVEKGWLPLFDFAYQGFARGLEEDAEGLRAFAAMHKELIVASSYSKNFGLYNERVGACTLVAADSETVDRAFSQMKAAIRANYSNPPAHGASVVATILSNDALRAIWEQELTDMRQRIQRMRQLFVNTLQEKGANRDFSFIIKQNGMFSFSGLTKEQVLRLREEFGVYAVASGRVNVAGMTPDNMAPLCEAIVAVL

Variants of: B1
Details: Escherichia coli (strain K12); pH 7.5; 25 °C; Urea; Fluorescence; Potassium phosphate 20 mM; reversible: Yes; structure 1AMQ; whole UniProt chain shown

| Variant | ddG of mutation (higher = less stable) | denaturant midpoint (higher = more stable) |
| --- | --- | --- |
| K63E E253K | 6.7 kcal/mol and 6.5 kcal/mol |  |
| K63M | 5.4 kcal/mol and 4.7 kcal/mol | 2.71 M and 2.81 M and 4.29 M |
| K63E | 4.5 kcal/mol | 2.93 M and 3.9 M and 5.01 M |
| K63M E253Q | 5.3 kcal/mol and 4.6 kcal/mol |  |
| D11A | 5.9 kcal/mol and 5.1 kcal/mol |  |
| E3A | 3.8 kcal/mol and 3 kcal/mol |  |
| R254M | 3.8 kcal/mol and 3.4 kcal/mol | 3.06 M and 3.12 M and 5.19 M |
| R254K | 7.6 kcal/mol and 5 kcal/mol |  |
| I5A | 4.9 kcal/mol and 5.1 kcal/mol | 2.81 M and 2.74 M and 5.2 M |
| E253K | 7.6 kcal/mol and 7.1 kcal/mol |  |
| E253Q | 6.3 kcal/mol and 5.4 kcal/mol |  |
| N282R | 2.6 kcal/mol | 3.3 M and 5.17 M |
| N282D | -0.8 kcal/mol | 4.15 M and 4.9 M and 5.13 M |
| F2A | 7.3 kcal/mol and 7.4 kcal/mol | 2.28 M and 4.26 M and 5.09 M |
| N285R | 4.4 kcal/mol and 5.9 kcal/mol | 2.91 M and 2.66 M and 4.24 M |
| T6A | 1.3 kcal/mol | 3.62 M and 4.77 M |
